Experimental data reported in paper PMC13186708.

Target: Alistipes sp. Cas12f (Al3Cas12f), wild type (Alistipes sp.)
Test: SEC; apo Al3Cas12f without gRNA on an S200i 10/300 GL column; 50 mM Tris-HCl pH 7.5, 250 mM NaCl, 10 mM MgCl2, 0.5 mM EDTA, 5% glycerol, 0.5 mM TCEP; peak at about 11.5 mL, near the 158 kDa standard

stoichiometry N: 2
Substance: Alistipes sp. Cas12f (Al3Cas12f), wild type (enzyme)
